Usually IC50 stands for the point on the concentration scale where inhibition reaches its midpoint.

In this test the target is T1, sLgBiT-Lc-GPR25 (without coexpression of TPST1 and TPST2) (Latimeria chalumnae (coelacanth), UniProt H3AQL3 1-365).
T1 sequence (looked up): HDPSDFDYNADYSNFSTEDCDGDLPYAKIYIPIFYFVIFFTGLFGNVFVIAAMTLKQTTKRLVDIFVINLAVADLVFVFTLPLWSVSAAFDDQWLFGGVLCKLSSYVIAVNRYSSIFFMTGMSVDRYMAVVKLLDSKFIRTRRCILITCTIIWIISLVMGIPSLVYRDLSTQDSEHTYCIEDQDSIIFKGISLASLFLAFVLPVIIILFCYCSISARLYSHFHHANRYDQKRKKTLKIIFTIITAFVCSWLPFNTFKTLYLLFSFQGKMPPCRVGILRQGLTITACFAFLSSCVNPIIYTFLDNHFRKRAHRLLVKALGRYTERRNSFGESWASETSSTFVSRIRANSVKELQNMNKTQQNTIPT
Nature of the test: split reporter.

B1: 6×His-Hs-CXCL17 (ligand, human, UniProt Q6UXB2 22-119, looked up)
chain: SSLNPGVARGHRDRGQASRRWLQEGGQECECKDWFLRAPRRKFMTVSGLPKKQCPCDHFKGNVKKTRHQRHHRKPNKHSRACQQFLKQCQLRSFALPL
B1: the half-inhibitory concentration (IC50) is about 400 nM.

The values are drawn from publication doi:10.1101/2025.09.16.676457 (bioRxiv, 2025).
